Experimental data published in the DeepSol protein solubility set.

assay: soluble on expression in E. coli; label from the status in PepcDB or PDB records

Row | Sequence | soluble on expression in E. coli
1 | MTNNDKNKKIVPEVKGTLRSHMIELPEVIRNATGIRVFGKRLKSFVFSTDVAVIRNTNADAVIAVYPFTPQPVITAAIVLAADVPVFCGVGGGLTMGKRVVNLALDAEFKGAMGVVVNSPTPNDIIREVRETIDIPIIVTVVSEYEDVQARIDSGATILNVSGAKRTSHIVRSIREKFPSIPIIATGGNNEASIIETIEAGANAITYTPPTTGKIFGDTMNSYRKKFE | not soluble
2 | MTNNDPYHTLINEICALSLISTPERFYESANFKISEVDFTLQYQDRDEGRAVLIYGDMGALPTRNRDAALLALMDINFHMFSGVHSPVFSWNAQTSRVLLMGSVSLERASAEGVLLLMKSFADLANEWREHGFIGQVKTAGAPAEQPVATAAKRESLSASGKFQ | not soluble
3 | MTNPGDGAAGAADRATLDHWRPRLAAIAAAAGQDDAAHDLGHLRRVWDAARAMLQAHPEADALVVLAASYLHDLVNLPKNHPERHLASRQAAAAARERLARAGFPAARLDAVAHAIEAHSFSAGIAPRTIEARIVQDADRLDALGPVGLVRMFHVGGSLGRALAHPSDPLAAQRALDDSRYTLDHIEAKLARLPHGMQTEAGRRLGEQRLAWLRDFRAAFSAQWGGGQLRLEHHHHHH | not soluble
4 | MTNPWEVSDAEYQKNFAMFGQLTGGQPFMDAVTARNALMRSNLPTQVLSQIWALSDLDKDGRLDIREYSIAMRLALNCLAGIPIPPQLPPSLLVVPARNAPPTWPGSRHGSVDYSQTLPPAIDRRMSQSYIPSAPVSIAGTPSSRHNSISAGSPLNNDRNVFEGRQLENWAIPHHNKLKYSQLFNALDKERLGSLSSQVGRSALGLSGLPTNVLAHIWFLSDVNKDGKLSVDEYAISQYMIEMFKSGFALPKITPLELVRMCGISSRSANNTPELEPGAEPPQKSPAPKTFEDKRQDNLSKGQAELERRRRVLEEEEQRRRAEVEKKEREEEAKKNRERQEKERQAEVERQAELERQRIIEAQREEEEKKRRLEMERRREEDEKMRKVQMEKAKVKQMQVQMPEQKKWNFYNQKQQENERLAQRQQREKTLQFQLQALDEKVIDVEVDIGKAKEAVAEVTGFIERMRSTRDEKVARIKELQETNQKTAIESQELGHQLLQKQSAHKETTQRKSELEALRRKRDAIRKAIEDAALELSTEKEKSYNQTEILKTNKEKYKTDVYSKLVAKREEYRNSFELLVHAQTHARSKIGEFEAKSAPASAAPAPAPAPAPTTTNGFPANFNDAFGEFDKTDASQRFDADFGATSTADPFAQIAQAPAHSKGAVDQSAFNIHDTYKCRALFAFEARSEDELSFEPGDVIIVFQSHAAEPGWRAGQLREKVGWFPEAFVEAIAAVPTPGGDPPIQNMPPNMTPSSSVDQIGVKAARKAEIAAAMGLTEGGAPPASSAPAAAAVISQCIAQFQWRARNEEDLSFAKGDTIEVLEKQEMKWKGRNPAGEIGWFPKSYVKEVGATTSTTTPIVSPSKASAGAPGAAAGAQYDVVPSDVTLQASETAPQQQLYTVIYDFEAVETTDLALHVGDTILVLEKNDEWWKGRCNGREGIFPANYVEISVQQAGDPTPPTQAPTPAAPPTVLCEAKVVVDFVASAPNQLGIKVGEIVKIREKSAAGWWEGELIRNGKPIAGWFPGEYVKVLEEAASPATRATAVYDYEASQPDELGFKTGDVIIVTDKSEAEWWSGHREQDPSKSGLFPSNYVQQQ | not soluble
5 | MTNQNLQDFLDGVLLKEENLNKITEVSLEKGLPHLLDEGIHNEDNFQIFTSQKIVADMIKMVGVKEMKNVHTTVLEPTSGDGAFTCAILDLRLKNIKKSDSFLKEALTGLSTIYSVEIDEELVWLQRNNLYSIFLAFLKKHGIFNEELSLLVKKILMINVSWGELITETKDNENFVCNYDYFLRNKKTKKKPAKHKHEFPEGLFSNGEGKCKSLFVNWSFADVINEIAHNSNFYFAKIAKIPGEIIQFQIN | not soluble
6 | MTNTLVENIYASVTHNISKKEASKNEKTKAVLNQAVADLSVAASIVHQVHWYMRGPGFLYLHPKMDELLDSLNANLDEVSERLITIGGAPYSTLAEFSKHSKLDEAKGTYDKTVAQHLARLVEVYLYLSSLYQVGLDITDEEGDAGTNDLFTAAKTEAEKTIWMLQAERGQGPAL | soluble
7 | MTNVLWLQGGACSGNTMSFLNGEEPTACDLIANFGIKVLWHPSLGVELGNNLQTLLWDCVLGKTPLDILVFEGSVVNAPNGTGEWNRFADRPMKDWLIDLSQAAKFIVAVGDCATWGGIPAMSPNPSDSKGLQFLKRKEGGFLGKDFVSKAGLPVINIPGCPTHPDWITQILVAIATGRTDDIVLDELHRPQTFFNTYTQTGCTRNIHFAYKATTAEFGQRKGCLFYDLGCRGPMTHSSCNRILWNRISSKTRAGMPCLGCTEPEFPFFDLKPGTVFKTQTVMGVPKEIPPGVNHRDYAVLTVVAKDAAPKWADEDFFTV | not soluble
8 | MTPFPAYVPPDFTRPDLAAAPPVRVAEAPGSGVLPAGFHATSNYPEYVHLGGGRWLLASGSRMDAVLVLDGDMLRVVEPRLVRRGDRVVVGRTENGEEGIYVHTTGFDAPAGAGGDKFTFRSRGTRESPFSRSYEELYDILRHDRDHGHIVWVLGPAVAFDRDSRAAMAGLIGGGYCHALLAGNALATHDLEAALFHTGLGQDIYTQALVAGGHYHHLDVINEVLRHGSLERAIAELGIRDGIIRACLEHRVPVVLAGSIRDDGPLPDVITDSRQAQDAMRAHARRATTVIALATQLHAIAVGNMTPSYRVLDDGTVRPVYFYIVDMSEFGADKLANRGSGQARAILTNVQDFMVNLWNNLKG | not soluble
9 | MTQEAIFKAIREREMKVLNIQVTSSCNYACGMCPFHGDGYSGEYFDERPTIRRDMSLDEIKLILEKASMEGFEWIDLTPNGEFFTHKQWYQILSLIKEFGLKIMITSNGGLLGEEDIKRACEVGVDHIVISVDSLSYESYKKIRKPATKLAFERAIHAPLYFKKYGGDSIYVQIQITEQPEFPHEALGVLDFYKDKGLNQISLKKMFVTGEDGIGHIGVEKLEYTHGKCKAYGSPIVMTDGTVLPCCGAFYFYPKLGEKIPNIFNHTIFESARILDDLYERDSLFGSYCRNCSLYDSSRKAAPVKFIFGDYYAEQTLFETRYFILPKYLRFLPSLAILWLYKKGYARKIKQWLVAAQ | not soluble
10 | MTQPLFLIGPRGCGKTTVGMALADSLNRRFVDTDQWLQSQLNMTVAEIVEREEWAGFRARETAALEAVTAPSTVIATGGGIILTEFNRHFMQNNGIVVYLCAPVSVLVNRLQAAPEEDLRPTLTGKPLSEEVQEVLEERDALYREVAHIIIDATNEPSQVISEIRSALAQTINC | soluble
11 | MTQQKLELTWFNKDQALIPQERGRYGYAWVDPHDPRYCQTHYLIEGETITGEQAPKQDGTQYGERADLEPTTDNLLINGESGDVLEALTRVPELADKYVGKVKCIYIDPPFNTAQTFANYEDNLEHSVWLTMMRDRLLHMKKLLSEDGSIWVHLDDVENHRMRLLMDEVFGAGNFVAEVVWEKTYSPRNDSKGIPAVTDTILVYRKSDQFSPNRLPRTAEMNARYKNPDHDRNGPWKSGDTTAPGNMSGKVQHPSVFAIQHPVTGQFIYPTYGRMWCFGQERILSSLSRYAPYRLAEPDMKSRSKRTGIPEEQLRADVFDLVVDETARQGDKTQAFRNISLGNWPEFFITDKGFGRKVPMSKSDGRVAPNLLRWEEVGHTDGAKKEITALFPNQAA | not soluble
12 | MTRVRDLMSTHIVHCTPLDNVYEAAVKMKEESIGLIPVVENEQVVGLVTDRDLVVRGIAEKHPGSNKITNVMTTNIISVSPNDSIEKATELMAQHQIRRLPVVDSGQLIGMLALGDLAIRESADDQAGFALSEISERTE | not soluble
13 | MTSGTTRWLDDCTPRALERFADELIAMAEQREDEARRRFYEGMAVAAKLIALRWEGKCAYIDDHLLDNVYEALAVFSLEKLEKTLAMEAEEAHGGGRCSFCLKEKPRLAKGPLAAICDDCLQFGLQVIAKQP | not soluble
14 | MTSLILPTDDGGTREYRLQAATSWVKPTAPLTARRAYAAAHVIPEVAADNTPGAPAQLDWDATLAYRHELWSYGLGVADAMDTAQRGMGLDWAATQQLIKRTGAEAASVVAAGNAAITGKSVRDLVSCGAGTDQLDITALPEGAAGIQAVIDAYREQIAVVSEAGPKVILMASRALAKVANGADDYLHVYSTLLQEVDQPVILHWLGTMFDPALAGYWGSDDVSVATDTFLSLIREHSDKVDGVKVSLLDASHEVALRAALPEGVRLYTGDDFNYPELIDGDQTHHSDALLGIFAAIYPAASVALQKYDAGQGTEGRAILDSTRELGKHIFSAPTFYYKTGIAFMSWLNGKQPGFQMVGGLHSGRSVLHLAKTFELADQAGLLKDPSLAAFRMSDFLRINGVG | not soluble
15 | MTSLLGGNFTEALHTVLSNQLNVMSQKTSDSEAPTTFSSSSSSDSPPYDPMSLVSAGISDQNGLMDMFKDGLFATLVPPTDVANSDTASSESPEPAAQSHEAAEETGGTEEQQAAALSLIQSFGTPIPSKFEDIESQFFSEATIRDLMPVLASVQGSPPHNQNQLSFGSTSSPSAWARNAGRKKSHPVWDFFKDMKDSTGAGGVICLHCSWSGDDRSPNNLRTHLKKFHSDDGIFNRFSEKLAKMARRKQQESTLVIDPSHSKDDSAFFEGSSGSDAPSTIDTTQLMALLEQSAAAAAAAAAASSSENPITSSLLKKDRTTTTTTEKELSPLTAARASEILFAAGMRPHKKTSEIWEHYKCLNEKQNVECIYCWKVLKRNDSSTKSMWGHMNAYHQDILRDGTTRKKVKRPANGLDFDETPTQPYVKRVRGGAGSSSSLPSMVKMDQKPMLDSMAFLQQLQQSGSLTEADFSSFANGSSLNFLDSLPKSSEVININSGFVKKEEMEEDTENHVEAASSSSSDERIKSETPDTYGSPNTSTTDQNEQLAAFVSSLSNSNPMMFAMLNAAGNSTSSAPAPPKSSTSQQRSSSPPSAHDTSNGSMSPSKVDKDPSSFSLSEGHCAAQLMSMALDLEMTMSYHKRRSEIELCFESNRTVDESQGAASRKVICLTDLGKEIKITERINGSVKDTELWVKTDFNQFHWAIRGKCQKSADASRVPPLVVKPRSSRRSPQPVRRRPPGPRDVSSPTHSFLMRWSFLCTL | not soluble
16 | MTSMATPHVAGIAALLLQAHPSWTPDKVKTALIETADIVKPDEIADIAYGAGRVNAYKAINYDNYAKLVFTGYVANKGSQTHQFVISGASFVTATLYWDNANSDLDLYLYDPNGNQVDYSYTAYYGFEKVGYYNPTDGTWTIKVVSYSGSANYQVDVVSDGSLSQPGSSPSPQPEPTVDAKTFQGLEHHHHHH | soluble
17 | MTSPNNDILAAQLSQLGTLRAALAQAVVGQDAVVEQLLIGLLAGGHCLLEGAPGLGKTLLVRSLGQALDLQFRRVQFTPDLMPSDILGTELLEEDHGTGHRHFRFQQGPIFTNLLLADELNRTPPKTQAALLEAMSERTVSYAGTTYALPAPFFVLATQNPIEQAGTYPLPEAQLDRFLLHVRVDYPSEQEERDILTQTTGSASAQVPKVMDAASVQALQQHVRQVHVGAELLTWINRLVRASRPGPQASDEVRQWIKWGAGPRAGQSLVLASKARALLHGRFAATREDVVALAAPVMRHRLLLSFAAEAEQRTADDVVAALLRAVPFPALEHHHHHH | soluble
